Measured values: patent publication US20230086210A1

Experiments:
[1] = target: human 4-1BB on Jurkat-hu4-1BB-NFκB-luc2 reporter cells (human) (UniProt Q07011); experiment: cell-based or functional assay; design: unit not given beside the values
[2] = target: human PD-L1 on MKN45-huPD-L1 cells (human) (UniProt Q9NZQ7); experiment: flow cytometry on MKN45-huPD-L1 cells, area under the binding curve; design: unit not given beside the values
human PD-L1 on MKN45-huPD-L1 cells (human), sequence (Q9NZQ7 19-290 limits assumed): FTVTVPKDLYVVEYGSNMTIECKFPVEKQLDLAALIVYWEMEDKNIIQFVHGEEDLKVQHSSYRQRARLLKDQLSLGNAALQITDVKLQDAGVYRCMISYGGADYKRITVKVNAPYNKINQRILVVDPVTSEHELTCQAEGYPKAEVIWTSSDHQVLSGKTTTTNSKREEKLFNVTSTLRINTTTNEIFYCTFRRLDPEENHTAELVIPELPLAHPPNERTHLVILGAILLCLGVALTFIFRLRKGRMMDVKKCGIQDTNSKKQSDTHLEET

human 4-1BB on Jurkat-hu4-1BB-NFκB-luc2 reporter cells (human), sequence (Q07011 24-255): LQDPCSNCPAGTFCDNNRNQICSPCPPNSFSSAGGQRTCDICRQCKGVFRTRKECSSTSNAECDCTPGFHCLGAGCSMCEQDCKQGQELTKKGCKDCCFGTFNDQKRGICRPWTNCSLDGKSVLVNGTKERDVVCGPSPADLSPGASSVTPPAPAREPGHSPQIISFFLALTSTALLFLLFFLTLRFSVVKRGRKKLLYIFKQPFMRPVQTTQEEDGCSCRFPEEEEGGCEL

DP47 huIgG1 P329G LALA (antibody)
AUC of NFκB-activation-induced Luciferase activity curve [1]: 112 | AUC [2]: 248
